EC50 data for 20 molecules are collected here from patent publication US20170145104A1 (Bristol-Myers Squibb, published 2017).

B1: 28F3 VH CDR3 mutant M98A, D106E, M111L (antibody, V domains shown)
VH: QVQLVESGGGVVQPGRSLRLSCAASGFTFSSYGMHWVRQAPGKGLEWVAVIWYEGSNKYYADSVKGRFTISRDNSKNTLYLQMNSLRAEDTAVYYCARGGSAVRGEYYYGLDVWGQGTTVTVSS
VL: AIQLTQSPSSLSASVGDRVTITCRASQGISSALAWYQQKPGKAPKLLIYDASSLESGVPSRFSGSGSGTDFTLTISSLQPEDFATYYCQQFNSYPYTFGQGTKLEIK
notes: also called G3
B2: 28F3 VH CDR3 mutant M98S, M111F (antibody, V domains shown)
VH: QVQLVESGGGVVQPGRSLRLSCAASGFTFSSYGMHWVRQAPGKGLEWVAVIWYEGSNKYYADSVKGRFTISRDNSKNTLYLQMNSLRAEDTAVYYCARGGSSVRGDYYYGFDVWGQGTTVTVSS
VL: AIQLTQSPSSLSASVGDRVTITCRASQGISSALAWYQQKPGKAPKLLIYDASSLESGVPSRFSGSGSGTDFTLTISSLQPEDFATYYCQQFNSYPYTFGQGTKLEIK
notes: also called F2
B3: 28F3 VH CDR3 mutant M98I, D106E, M111L (antibody, V domains shown)
VH: QVQLVESGGGVVQPGRSLRLSCAASGFTFSSYGMHWVRQAPGKGLEWVAVIWYEGSNKYYADSVKGRFTISRDNSKNTLYLQMNSLRAEDTAVYYCARGGSIVRGEYYYGLDVWGQGTTVTVSS
VL: AIQLTQSPSSLSASVGDRVTITCRASQGISSALAWYQQKPGKAPKLLIYDASSLESGVPSRFSGSGSGTDFTLTISSLQPEDFATYYCQQFNSYPYTFGQGTKLEIK
notes: also called D3
B4: 28F3 VH CDR3 mutant M98L, M111L (antibody, V domains shown)
VH: QVQLVESGGGVVQPGRSLRLSCAASGFTFSSYGMHWVRQAPGKGLEWVAVIWYEGSNKYYADSVKGRFTISRDNSKNTLYLQMNSLRAEDTAVYYCARGGSLVRGDYYYGLDVWGQGTTVTVSS
VL: AIQLTQSPSSLSASVGDRVTITCRASQGISSALAWYQQKPGKAPKLLIYDASSLESGVPSRFSGSGSGTDFTLTISSLQPEDFATYYCQQFNSYPYTFGQGTKLEIK
notes: also called C1
B5: 28F3 VH CDR3 mutant M98I, M111F (antibody, V domains shown)
VH: QVQLVESGGGVVQPGRSLRLSCAASGFTFSSYGMHWVRQAPGKGLEWVAVIWYEGSNKYYADSVKGRFTISRDNSKNTLYLQMNSLRAEDTAVYYCARGGSIVRGDYYYGFDVWGQGTTVTVSS
VL: AIQLTQSPSSLSASVGDRVTITCRASQGISSALAWYQQKPGKAPKLLIYDASSLESGVPSRFSGSGSGTDFTLTISSLQPEDFATYYCQQFNSYPYTFGQGTKLEIK
notes: also called D2
B6: 28F3 VH CDR3 mutant M98S, D106E, M111L (antibody, V domains shown)
VH: QVQLVESGGGVVQPGRSLRLSCAASGFTFSSYGMHWVRQAPGKGLEWVAVIWYEGSNKYYADSVKGRFTISRDNSKNTLYLQMNSLRAEDTAVYYCARGGSSVRGEYYYGLDVWGQGTTVTVSS
VL: AIQLTQSPSSLSASVGDRVTITCRASQGISSALAWYQQKPGKAPKLLIYDASSLESGVPSRFSGSGSGTDFTLTISSLQPEDFATYYCQQFNSYPYTFGQGTKLEIK
B7: 28F3 VH CDR3 mutant M98Q, M111L (antibody, V domains shown)
VH: QVQLVESGGGVVQPGRSLRLSCAASGFTFSSYGMHWVRQAPGKGLEWVAVIWYEGSNKYYADSVKGRFTISRDNSKNTLYLQMNSLRAEDTAVYYCARGGSQVRGDYYYGLDVWGQGTTVTVSS
VL: AIQLTQSPSSLSASVGDRVTITCRASQGISSALAWYQQKPGKAPKLLIYDASSLESGVPSRFSGSGSGTDFTLTISSLQPEDFATYYCQQFNSYPYTFGQGTKLEIK
notes: also called E1
B8: 28F3 VH CDR3 mutant M98Q, D106E, M111L (antibody, V domains shown)
VH: QVQLVESGGGVVQPGRSLRLSCAASGFTFSSYGMHWVRQAPGKGLEWVAVIWYEGSNKYYADSVKGRFTISRDNSKNTLYLQMNSLRAEDTAVYYCARGGSQVRGEYYYGLDVWGQGTTVTVSS
VL: AIQLTQSPSSLSASVGDRVTITCRASQGISSALAWYQQKPGKAPKLLIYDASSLESGVPSRFSGSGSGTDFTLTISSLQPEDFATYYCQQFNSYPYTFGQGTKLEIK
notes: also called E3
B9: 28F3 VH CDR3 mutant M98L, D106E, M111L (antibody, V domains shown)
VH: QVQLVESGGGVVQPGRSLRLSCAASGFTFSSYGMHWVRQAPGKGLEWVAVIWYEGSNKYYADSVKGRFTISRDNSKNTLYLQMNSLRAEDTAVYYCARGGSLVRGEYYYGLDVWGQGTTVTVSS
VL: AIQLTQSPSSLSASVGDRVTITCRASQGISSALAWYQQKPGKAPKLLIYDASSLESGVPSRFSGSGSGTDFTLTISSLQPEDFATYYCQQFNSYPYTFGQGTKLEIK
notes: also called C3
B10: 28F3 VH CDR3 mutant M98Q, M111F (antibody, V domains shown)
VH: QVQLVESGGGVVQPGRSLRLSCAASGFTFSSYGMHWVRQAPGKGLEWVAVIWYEGSNKYYADSVKGRFTISRDNSKNTLYLQMNSLRAEDTAVYYCARGGSQVRGDYYYGFDVWGQGTTVTVSS
VL: AIQLTQSPSSLSASVGDRVTITCRASQGISSALAWYQQKPGKAPKLLIYDASSLESGVPSRFSGSGSGTDFTLTISSLQPEDFATYYCQQFNSYPYTFGQGTKLEIK
notes: also called E2
B11: 28F3 VH CDR3 mutant M98L, M111F (antibody, V domains shown)
VH: QVQLVESGGGVVQPGRSLRLSCAASGFTFSSYGMHWVRQAPGKGLEWVAVIWYEGSNKYYADSVKGRFTISRDNSKNTLYLQMNSLRAEDTAVYYCARGGSLVRGDYYYGFDVWGQGTTVTVSS
VL: AIQLTQSPSSLSASVGDRVTITCRASQGISSALAWYQQKPGKAPKLLIYDASSLESGVPSRFSGSGSGTDFTLTISSLQPEDFATYYCQQFNSYPYTFGQGTKLEIK
notes: also called C2
B12: 28F3 VH CDR3 mutant M98A, M111L (antibody, V domains shown)
VH: QVQLVESGGGVVQPGRSLRLSCAASGFTFSSYGMHWVRQAPGKGLEWVAVIWYEGSNKYYADSVKGRFTISRDNSKNTLYLQMNSLRAEDTAVYYCARGGSAVRGDYYYGLDVWGQGTTVTVSS
VL: AIQLTQSPSSLSASVGDRVTITCRASQGISSALAWYQQKPGKAPKLLIYDASSLESGVPSRFSGSGSGTDFTLTISSLQPEDFATYYCQQFNSYPYTFGQGTKLEIK
notes: also called G1
B13: 28F3 VH CDR3 mutant M98A, M111F (antibody, V domains shown)
VH: QVQLVESGGGVVQPGRSLRLSCAASGFTFSSYGMHWVRQAPGKGLEWVAVIWYEGSNKYYADSVKGRFTISRDNSKNTLYLQMNSLRAEDTAVYYCARGGSAVRGDYYYGFDVWGQGTTVTVSS
VL: AIQLTQSPSSLSASVGDRVTITCRASQGISSALAWYQQKPGKAPKLLIYDASSLESGVPSRFSGSGSGTDFTLTISSLQPEDFATYYCQQFNSYPYTFGQGTKLEIK
notes: also called G2
B14: 28F3 VH CDR3 mutant M98S, M111L (antibody, V domains shown)
VH: QVQLVESGGGVVQPGRSLRLSCAASGFTFSSYGMHWVRQAPGKGLEWVAVIWYEGSNKYYADSVKGRFTISRDNSKNTLYLQMNSLRAEDTAVYYCARGGSSVRGDYYYGLDVWGQGTTVTVSS
VL: AIQLTQSPSSLSASVGDRVTITCRASQGISSALAWYQQKPGKAPKLLIYDASSLESGVPSRFSGSGSGTDFTLTISSLQPEDFATYYCQQFNSYPYTFGQGTKLEIK
notes: also called F1
B15: 28F3 VH CDR3 mutant M98V, D106E, M111L (antibody, V domains shown)
VH: QVQLVESGGGVVQPGRSLRLSCAASGFTFSSYGMHWVRQAPGKGLEWVAVIWYEGSNKYYADSVKGRFTISRDNSKNTLYLQMNSLRAEDTAVYYCARGGSVVRGEYYYGLDVWGQGTTVTVSS
VL: AIQLTQSPSSLSASVGDRVTITCRASQGISSALAWYQQKPGKAPKLLIYDASSLESGVPSRFSGSGSGTDFTLTISSLQPEDFATYYCQQFNSYPYTFGQGTKLEIK
notes: also called A3
B16: 28F3 VH CDR3 mutant M98F, M111L (antibody, V domains shown)
VH: QVQLVESGGGVVQPGRSLRLSCAASGFTFSSYGMHWVRQAPGKGLEWVAVIWYEGSNKYYADSVKGRFTISRDNSKNTLYLQMNSLRAEDTAVYYCARGGSFVRGDYYYGLDVWGQGTTVTVSS
VL: AIQLTQSPSSLSASVGDRVTITCRASQGISSALAWYQQKPGKAPKLLIYDASSLESGVPSRFSGSGSGTDFTLTISSLQPEDFATYYCQQFNSYPYTFGQGTKLEIK
notes: also called B1
B17: 28F3 VH CDR3 mutant M98V, M111L (antibody, V domains shown)
VH: QVQLVESGGGVVQPGRSLRLSCAASGFTFSSYGMHWVRQAPGKGLEWVAVIWYEGSNKYYADSVKGRFTISRDNSKNTLYLQMNSLRAEDTAVYYCARGGSVVRGDYYYGLDVWGQGTTVTVSS
VL: AIQLTQSPSSLSASVGDRVTITCRASQGISSALAWYQQKPGKAPKLLIYDASSLESGVPSRFSGSGSGTDFTLTISSLQPEDFATYYCQQFNSYPYTFGQGTKLEIK
notes: also called A1
B18: 28F3 VH CDR3 mutant M98I, M111L (antibody, V domains shown)
VH: QVQLVESGGGVVQPGRSLRLSCAASGFTFSSYGMHWVRQAPGKGLEWVAVIWYEGSNKYYADSVKGRFTISRDNSKNTLYLQMNSLRAEDTAVYYCARGGSIVRGDYYYGLDVWGQGTTVTVSS
VL: AIQLTQSPSSLSASVGDRVTITCRASQGISSALAWYQQKPGKAPKLLIYDASSLESGVPSRFSGSGSGTDFTLTISSLQPEDFATYYCQQFNSYPYTFGQGTKLEIK
notes: also called D1
B19: 28F3 VH CDR3 mutant M98V, M111F (antibody, V domains shown)
VH: QVQLVESGGGVVQPGRSLRLSCAASGFTFSSYGMHWVRQAPGKGLEWVAVIWYEGSNKYYADSVKGRFTISRDNSKNTLYLQMNSLRAEDTAVYYCARGGSVVRGDYYYGFDVWGQGTTVTVSS
VL: AIQLTQSPSSLSASVGDRVTITCRASQGISSALAWYQQKPGKAPKLLIYDASSLESGVPSRFSGSGSGTDFTLTISSLQPEDFATYYCQQFNSYPYTFGQGTKLEIK
notes: also called A2
B20: 28F3 VH CDR3 mutant M98F, D106E, M111L (antibody, V domains shown)
VH: QVQLVESGGGVVQPGRSLRLSCAASGFTFSSYGMHWVRQAPGKGLEWVAVIWYEGSNKYYADSVKGRFTISRDNSKNTLYLQMNSLRAEDTAVYYCARGGSFVRGEYYYGLDVWGQGTTVTVSS
VL: AIQLTQSPSSLSASVGDRVTITCRASQGISSALAWYQQKPGKAPKLLIYDASSLESGVPSRFSGSGSGTDFTLTISSLQPEDFATYYCQQFNSYPYTFGQGTKLEIK
notes: also called B3

The target in this assay is T1, human GITR, membrane bound (on activated human T cells and on 3A9-hGITR cells) (human, UniProt Q9Y5U5 26-241).
T1 construct: whole, on cells; the cell is named under assay; also called huGITR; TNFRSF18
T1 sequence (looked up): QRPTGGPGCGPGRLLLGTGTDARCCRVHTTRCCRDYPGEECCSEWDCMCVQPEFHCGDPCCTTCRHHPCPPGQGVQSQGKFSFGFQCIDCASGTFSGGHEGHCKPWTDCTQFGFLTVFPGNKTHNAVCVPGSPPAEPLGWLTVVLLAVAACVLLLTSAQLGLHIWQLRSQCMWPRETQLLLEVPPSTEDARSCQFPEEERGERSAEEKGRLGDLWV
The experiment in a line: FACS binding to 3A9-hGITR transfectant, Geo-MFI (PE); EC50 table beside the curves; unit from the axis. (Flow cytometry measures light scatter and fluorescence of single cells or particles in a stream.)
With B1, it took 62 nM to reach a half-maximal effect (EC50).

Turning to B2, the EC50 (as a rule, the concentration giving half of the maximal effect) is 246 nM.

For B3, a half-maximal effect (EC50) was put at 1.07 nM.

Regarding B4, it took 0.674 nM to reach a half-maximal effect (EC50). Compared with the last molecule, the EC50 is about 1.6-fold lower.

B5 returned an EC50 of 1.33 nM.

Turning to B6, the EC50 is approximately 1250 nM.

The molecule B7 yielded an EC50 of 21.7 nM.

B8 came in with a concentration for a half-maximal effect (EC50) of 20.4 nM. The EC50 values of the last two molecules are within 1.5-fold of each other.

B9 displayed an EC50 of 1.22 nM.

Consider B10, for which the EC50 turned out to be 16.6 nM.

In turn, B11 returned an EC50 of 1.38 nM. Compared with the last molecule, the EC50 is about 12-fold lower.

B12 had an EC50 of 187 nM. This EC50 lies about 140-fold higher than the previous one.

For the molecule B13, the EC50 is 171 nM.

The molecule B14 showed an EC50 of 60.3 nM. This EC50 is about 2.8-fold lower than that of the molecule before.

Turning to B15, the EC50 was determined as 2.87 nM.

B16 displayed an EC50 of 51.8 nM.

As to B17, the EC50 was 3.53 nM.

B18 yielded an EC50 of 1.03 nM.

The molecule B19 registered an EC50 of 3.7 nM.

B20: a half-maximal response (EC50) required 417 nM.
